According to patent US20230265179A1 (TWIST BIOSCIENCE, published 2023):

T1: IL1RL1 over-expressed on Expi293 cells (UniProt Q01638 19-556, limits assumed)
T1 construct: whole, on cells; Target of the flow cytometry MFI ratio (over-expressing cells over parent cells); also called cytokine over-expressing Expi293 cells
T1 sequence (looked up): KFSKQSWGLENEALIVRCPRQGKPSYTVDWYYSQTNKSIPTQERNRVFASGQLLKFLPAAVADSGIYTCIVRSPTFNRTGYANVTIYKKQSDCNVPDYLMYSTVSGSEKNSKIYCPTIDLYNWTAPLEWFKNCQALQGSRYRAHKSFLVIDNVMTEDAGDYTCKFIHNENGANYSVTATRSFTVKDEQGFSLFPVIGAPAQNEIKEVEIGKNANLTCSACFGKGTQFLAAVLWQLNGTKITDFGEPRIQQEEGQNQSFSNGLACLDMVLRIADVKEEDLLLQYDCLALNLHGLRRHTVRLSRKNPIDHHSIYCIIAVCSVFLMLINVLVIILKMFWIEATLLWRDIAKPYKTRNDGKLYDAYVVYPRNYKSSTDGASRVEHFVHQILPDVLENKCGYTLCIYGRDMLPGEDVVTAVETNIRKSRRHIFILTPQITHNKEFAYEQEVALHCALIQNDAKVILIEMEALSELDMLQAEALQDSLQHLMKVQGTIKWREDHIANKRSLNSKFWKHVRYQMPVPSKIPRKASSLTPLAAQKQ

B1: IL1RL1-32 (Fc fusion, not shown: a dimerising Fc or GST)
VHH: EVQLVESGGGLVQPGGSLRLSCAASGFTLGDYVMGWFRQAPGKEREFVAVIYTSDGSTYYADSVKGRFTISADNSKNTAYLQMNSLKPEDTAVYYCVVSFSTRGPYWGQGTLVTVSS
notes: VHH-Fc on IgG2 Fc
B2: IL1RL1-189 (antibody, V domains shown)
VH: EVQLLESGGGLVQPGGSLRLSCAASGFTFSSYFMSWVRQAPGKGLEWVSAISREGRATYYADSVKGRFTISRDNSKNTLYLQMNSLRAEDTAVYYCARIRVGPSGGAFDYWGQGTLVTVSS
VL: DIQMTQSPSSLSASVGDRVTITCKASDHIGKFLTWYQQKPGKAPKLLIYGRNKRPSGVPSRFSGSGSGTDFTLTISSLQPEDFATYYCQQSYSTPTFGQGTKVEIK
notes: IgG2
B3: IL1RL1-192 (antibody, V domains shown)
VH: EVQLLESGGGLVQPGGSLRLSCAASGFTFGNYAMAWVRQAPGKGLEWVSGITRSGSTNYRDSVKGRFTISRDNSKNTLYLQMNSLRAEDTAVYYCARDRYFRQQNAFDYWGQGTLVTVSS
VL: DIQMTQSPSSLSASVGDRVTITCQASQSISSYLAWYQQKPGKAPKLLIYGRNKRPSGVPSRFSGSGSGTDFTLTISSLQPEDFATYYCAQTGTHPTTFGQGTKVEIK
notes: IgG2
B4: IL1RL1-193 (antibody, V domains shown)
VH: EVQLLESGGGLVQPGGSLRLSCAASGFTFAKYKMWWVRQAPGKGLEWVSGITRSGSTNYRDSVKGRFTISRDNSKNTLYLQMNSLRAEDTAVYYCASLSRGYWGQGTLVTVSS
VL: DIQMTQSPSSLSASVGDRVTITCKASDHIGKFLTWYQQKPGKAPKLLIYHTSRLQSGVPSRFSGSGSGTDFTLTISSLQPEDFATYYCQQGFSNPWTFGQGTKVEIK
notes: IgG2
B5: IL1RL1-30 (Fc fusion, not shown: a dimerising Fc or GST)
VHH: EVQLVESGGGLVQPGGSLRLSCAASGDISSIVAMGWFRQAPGKEREWVASISTSGSTITPYADSVKGRFTISADNSKNTAYLQMNSLKPEDTAVYYCAAGAVRYGVSTSPMNYNWGQGTLVTVSS
notes: VHH-Fc on IgG2 Fc
B6: IL1RL1-31 (Fc fusion, not shown: a dimerising Fc or GST)
VHH: EVQLVESGGGLVQPGGSLRLSCAASGFTFRNFGMGWFRQAPGKEREFVALINVGGVAKYADSVKGRFTISADNSKNTAYLQMNSLKPEDTAVYYCTTDARHWGQGTLVTVSS
notes: VHH-Fc on IgG2 Fc
B7: IL1RL1-36 (Fc fusion, not shown: a dimerising Fc or GST)
VHH: EVQLVESGGGLVQPGGSLRLSCAASGSIYSLVAMGWFRQAPGKEREWMGVIAYDGSTYYADSVKGRFTISADNSKNTAYLQMNSLKPEDTAVYYCAAVGGATTVTASEWDWGQGTLVTVSS
notes: VHH-Fc on IgG2 Fc
B8: IL1RL1-79 (Fc fusion, not shown: a dimerising Fc or GST)
VHH: EVQLVESGGGLVQPGGSLRLSCAASGRTFSMGWFRQAPGKEREAVASISWSGGSAFYADSVKGRFTISADNSKNTAYLQMNSLKPEDTAVYYCAAIGGGAVWGQGTLVTVSS
notes: VHH-Fc on IgG2 Fc
B9: IL1RL1-76 (Fc fusion, not shown: a dimerising Fc or GST)
VHH: EVQLVESGGGLVQPGGSLRLSCAASGSIFTIYAMGWFRQAPGKEREWVASISTSGSTITPYADSVKGRFTISADNSKNTAYLQMNSLKPEDTAVYYCATTEYSGYDAVNYWGQGTLVTVSS
notes: VHH-Fc on IgG2 Fc
B10: IL1RL1-33 (Fc fusion, not shown: a dimerising Fc or GST)
VHH: EVQLVESGGGLVQPGGSLRLSCAASGGTFSTHWMGWFRQAPGKEREEVAAISWIIGSTYYADSVKGRFTISADNSKNTAYLQMNSLKPEDTAVYYCATSGSGSPNWGQGTLVTVSS
B11: IL1RL1-29 (Fc fusion, not shown: a dimerising Fc or GST)
VHH: EVQLVESGGGLVQPGGSLRLSCAASGGFSVYAMGWFRQAPGKEREWVSSTSTGGGGTYYADSVKGRFTISADNSKNTAYLQMNSLKPEDTAVYYCAANVGVTGSYEWGQGTLVTVSS
notes: VHH-Fc on IgG2 Fc
B12: IL1RL1-35 (Fc fusion, not shown: a dimerising Fc or GST)
VHH: EVQLVESGGGLVQPGGSLRLSCAASGLTISSLTMGWFRQAPGKEREFVAGIWSGGYTHYADSVKGRFTISADNSKNTAYLQMNSLKPEDTAVYYCAAVSSNTEIFDWGQGTLVTVSS
notes: VHH-Fc on IgG2 Fc

Molecular target: T1, IL1RL1 over-expressed on Expi293 cells
Test: flow cytometry, 100 nM antibody, over-expressing Expi293 / parent cells
Experimental: All incubations and washes were in buffer containing PBS+1% BSA. MFI Ratio is defined by the mean fluorescence intensity (MFI) of the cytokine over-expressing Expi293 cell over the Expi293 parent cell. […] EC50 was calculated in GraphPad Prism.

Binder | 100 nM FACS (MFI Ratio) [MFI ratio]
B1 | 432
B2 | 7.46
B3 | 0.55
B4 | 1.62
B5 | 515
B6 | 311
B7 | 87.7
B8 | 1
B9 | 385
B10 | 504
B11 | 431
B12 | 514
